Earlier results as cited in paper PMC7424061.

Biological target: p53 TAD (Homo sapiens) (UniProt P04637)
Sequence (P04637 1-61): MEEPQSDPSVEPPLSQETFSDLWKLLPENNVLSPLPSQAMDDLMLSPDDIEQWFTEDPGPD

Sequence of azurin (P00282 21-148): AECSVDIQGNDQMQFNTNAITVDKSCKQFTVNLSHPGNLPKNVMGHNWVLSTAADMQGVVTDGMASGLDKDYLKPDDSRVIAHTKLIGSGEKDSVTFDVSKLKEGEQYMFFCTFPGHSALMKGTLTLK

## azurin (from UniProt P00282)
  Kd: 7 µM
